From PMC11246219

Biological target: PELI2 (UniProt Q9HAT8)
Assay: anti-FLAG co-IP, phospho-STING blot quantified

**Q.** STING (from UniProt Q86WV6) STING-5T>A was tested. Which “binding against the reference” value (reference: STING only-T354, sites T354) did it give?
**A.** The value was “lost”.

**Q.** And the “binding against the reference” value (reference: STING only-T356, sites T356)?
**A.** The value was “lost”.
